# Experimental data: patent publication US20260265360A1 (NEURACLE SCIENCE, published 2026)
# Ends that are not written are not given here.
# T1: FAM19A5 mutant M2 (human)
# T1 chain: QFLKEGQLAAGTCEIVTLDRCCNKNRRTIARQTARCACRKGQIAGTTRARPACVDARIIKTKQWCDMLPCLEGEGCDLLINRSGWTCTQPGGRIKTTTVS
# T2: FAM19A5 epitope fragment F2, BSA-conjugated (human, conjugated to BSA)
# T2 peptide: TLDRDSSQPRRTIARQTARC
# T3: F2-06-BSA (#6) (human, conjugated to BSA)
# T3 construct: already contained in the entry; also called mutant F2 peptide fragment #6
# T3 peptide: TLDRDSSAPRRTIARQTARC
# T4: F2-07-BSA (#7) (human, conjugated to BSA)
# T4 construct: already contained in the entry; also called mutant F2 peptide fragment #7
# T4 peptide: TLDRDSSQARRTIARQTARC
# T5: F2-02-BSA (#2) (human, conjugated to BSA)
# T5 construct: already contained in the entry; also called mutant F2 peptide fragment #2
# T5 peptide: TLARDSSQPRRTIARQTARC
# T6: F2-04-BSA (#4) (human, conjugated to BSA)
# T6 construct: already contained in the entry; also called mutant F2 peptide fragment #4
# T6 peptide: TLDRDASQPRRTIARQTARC
# T7: F2-01-BSA (#1) (human, conjugated to BSA)
# T7 construct: already contained in the entry; also called mutant F2 peptide fragment #1
# T7 peptide: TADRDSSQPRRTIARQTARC
# T8: F2-05-BSA (#5) (human, conjugated to BSA)
# T8 construct: already contained in the entry; also called mutant F2 peptide fragment #5
# T8 peptide: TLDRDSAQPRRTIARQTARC
# T9: F2-09-BSA (#9) (human, conjugated to BSA)
# T9 construct: already contained in the entry; also called mutant F2 peptide fragment #9
# T9 peptide: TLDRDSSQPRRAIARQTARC
# T10: F2-08-BSA (#8) (human, conjugated to BSA)
# T10 construct: already contained in the entry; also called mutant F2 peptide fragment #8
# T10 peptide: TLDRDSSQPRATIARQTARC
# T11: F2-12-BSA (#12) (human, conjugated to BSA)
# T11 construct: already contained in the entry; also called mutant F2 peptide fragment #12
# T11 peptide: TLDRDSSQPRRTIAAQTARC
# T12: F2-10-BSA (#10) (human, conjugated to BSA)
# T12 construct: already contained in the entry; also called mutant F2 peptide fragment #10
# T12 peptide: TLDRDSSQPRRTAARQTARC
# T13: F2-13-BSA (#13) (human, conjugated to BSA)
# T13 construct: already contained in the entry; also called mutant F2 peptide fragment #13
# T13 peptide: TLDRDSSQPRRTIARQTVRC
# T14: FAM19A5 epitope fragment F1, BSA-conjugated (human, also: conjugated to BSA)
# T14 construct: which number belongs to which fragment is not spelled out
# T14 peptide: QLAAGTCEIVTLDR
# T15: FAM19A5 epitope fragment F4, BSA-conjugated (human, conjugated to BSA)
# T15 peptide: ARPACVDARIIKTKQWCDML
# T16: FAM19A5 epitope fragment F5, BSA-conjugated (human, conjugated to BSA)
# T16 peptide: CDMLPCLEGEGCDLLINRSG
# T17: FAM19A5 epitope fragment F3, BSA-conjugated (human, conjugated to BSA)
# T17 peptide: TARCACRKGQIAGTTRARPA
# T18: FAM19A5 epitope fragment F6, BSA-conjugated (human, conjugated to BSA)
# T18 peptide: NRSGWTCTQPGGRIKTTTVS
# T19: FAM19A5 mutant M4 (human)
# T19 chain: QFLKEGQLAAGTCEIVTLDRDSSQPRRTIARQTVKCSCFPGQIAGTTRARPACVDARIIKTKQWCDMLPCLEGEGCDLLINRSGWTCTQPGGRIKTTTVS
# T20: FAM19A5 mutant M6 (human)
# T20 chain: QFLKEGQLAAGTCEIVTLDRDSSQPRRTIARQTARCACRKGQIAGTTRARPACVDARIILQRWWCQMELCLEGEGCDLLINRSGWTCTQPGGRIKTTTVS
# T21: FAM19A5 mutant M8 (human)
# T21 chain: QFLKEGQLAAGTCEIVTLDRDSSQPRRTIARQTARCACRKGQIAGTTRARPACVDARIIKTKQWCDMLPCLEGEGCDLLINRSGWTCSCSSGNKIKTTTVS
# T22: FAM19A5 mutant M1 (human)
# T22 chain: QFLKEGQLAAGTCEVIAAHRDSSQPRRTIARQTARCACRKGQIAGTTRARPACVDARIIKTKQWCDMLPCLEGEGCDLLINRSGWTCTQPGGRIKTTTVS
# T23: FAM19A5 mutant M7 (human)
# T23 chain: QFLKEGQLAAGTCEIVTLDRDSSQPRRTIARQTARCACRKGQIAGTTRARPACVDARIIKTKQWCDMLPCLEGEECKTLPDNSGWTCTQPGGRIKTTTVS
# T24: FAM19A5 mutant M3 (human)
# T24 chain: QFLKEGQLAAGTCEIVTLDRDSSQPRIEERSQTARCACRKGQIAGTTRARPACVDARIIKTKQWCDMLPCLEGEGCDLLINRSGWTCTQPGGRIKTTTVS
# Tests used:
# FAM19A5 mutant M2 = biological target: T1, FAM19A5 mutant M2; assay: ELISA on phage-expressed FAM19A5 mutants M1-M8
# [1] = biological target: T2, FAM19A5 epitope fragment F2, …; assay: ELISA, plate-coated BSA-conjugated FAM19A5 fragments F1-F6 (data not shown)
# Procedure: Binding of the different anti-FAM19A5 antibodies to the BSA-conjugated peptide fragments F1-F6 was determined by Western blot analysis or ELISA assay. For the Western blot analysis, BSA-conjugated FAM19A5 fragments F1-F6 were separated by SDS polyacrylamide gel electrophoresis and transferred to a nitrocellulose membrane by the standard procedure. The membrane was incubated with the anti-FAM19A5 antibody (e.g., 1-65, […], 1-65-scFv-rabbit Fc-SSS), and the antigen-antibody complexes were detected with the appropriate secondary antibody conjugated with horse-radish peroxidase (anti-rabbit IgG (Fc specific)-HRP, 1:4000 dilution). For the ELISA assay, the following protocol was used. FAM19A5 fragment F1-F6 (diluted to 1 μg/mL in 50 mM carbonate buffer (Biosesang) or to 20 μg/mL for high concentration analysis) were used to coat the wells of 96-well immuno plates (Thermo Scientific) (100 μL/well) overnight at 4° C. and then subsequently washed twice in 1×PBS. The plates were then blocked with the blocking buffer (100 μL/well) for 1 hour at room temperature. […] The absorption value of each of the wells was detected at 492 nm using a 96-well microplate reader (Molecular Device).
# (§1) As shown in FIGS. 19 and 20A, the anti-FAM19A5 antibody 1-65 bound strongly to fragment F5 as measured by both Western Blot and ELISA assay, respectively.
# F2-06-BSA (#6) = biological target: T3, F2-06-BSA (#6); assay: ELISA, plate-coated F2 mutant peptides (BSA-conjugated)
# F2-07-BSA (#7) = biological target: T4, F2-07-BSA (#7); assay: as above
# F2-02-BSA (#2) = biological target: T5, F2-02-BSA (#2); assay: as above
# F2-04-BSA (#4) = biological target: T6, F2-04-BSA (#4); assay: as above
# F2-01-BSA (#1) = biological target: T7, F2-01-BSA (#1); assay: as above
# F2-05-BSA (#5) = biological target: T8, F2-05-BSA (#5); assay: as above
# F2-09-BSA (#9) = biological target: T9, F2-09-BSA (#9); assay: as above
# F2-08-BSA (#8) = biological target: T10, F2-08-BSA (#8); assay: as above
# F2-12-BSA (#12) = biological target: T11, F2-12-BSA (#12); assay: as above
# F2-10-BSA (#10) = biological target: T12, F2-10-BSA (#10); assay: as above
# F2-13-BSA (#13) = biological target: T13, F2-13-BSA (#13); assay: as above
# [2] = biological target: T2, FAM19A5 epitope fragment F2, …; assay: ELISA, plate-coated BSA-conjugated FAM19A5 fragments F1-F6
# Procedure: (§2) Binding of the different anti-FAM19A5 antibodies to the BSA-conjugated peptide fragments F1-F6 was determined by Western blot analysis or ELISA assay. For the Western blot analysis, BSA-conjugated FAM19A5 fragments F1-F6 were separated by SDS polyacrylamide gel electrophoresis and transferred to a nitrocellulose membrane by the standard procedure. The membrane was incubated with the anti-FAM19A5 antibody (e.g., 1-65, […], 1-65-scFv-rabbit Fc-SSS), and the antigen-antibody complexes were detected with the appropriate secondary antibody conjugated with horse-radish peroxidase (anti-rabbit IgG (Fc specific)-HRP, 1:4000 dilution). For the ELISA assay, the following protocol was used. FAM19A5 fragment F1-F6 (diluted to 1 μg/mL in 50 mM carbonate buffer (Biosesang) or to 20 μg/mL for high concentration analysis) were used to coat the wells of 96-well immuno plates (Thermo Scientific) (100 μL/well) overnight at 4° C. and then subsequently washed twice in 1×PBS. The plates were then blocked with the blocking buffer (100 μL/well) for 1 hour at room temperature. During the 1-hour incubation, the relavant anti-FAM19A5 antibodies were diluted to 1 μg/mL (or 20 μg/mL for high concentration analysis) in the diluent buffer. Once the plates were washed (2× using 1×PBS), the diluted anti-FAM19A5 antibodies were added to the appropriate wells, and the plates were incubated at room temperature for 1 hour. The plates were subsequently washed for a total of five times using the washing buffer. Next, the ODP substrate (prepared by dissolving one ODP tablet (O-phenylenediamine Dihydrochloride, Thermo) into 9 mL of sterilized deionized water and 1 mL of 10× stable Peroxide Stable buffer (Theromo)) was added to each of the wells, and the color change reaction was allowed to occur for 10 minutes. This reaction was stopped by adding 100 μL of 2N H2SO4 (Daejung) to the wells. The absorption value of each of the wells was detected at 492 nm using a 96-well microplate reader (Molecular Device).
# as §1
# [3] = biological target: T14, FAM19A5 epitope fragment F1, …; assay: as above
# Procedure: as §2, §1
# [4] = biological target: T15, FAM19A5 epitope fragment F4, …; assay: as above
# Procedure: as §2, §1
# [5] = biological target: T16, FAM19A5 epitope fragment F5, …; assay: as above
# Procedure: as §2, §1
# [6] = biological target: T17, FAM19A5 epitope fragment F3, …; assay: as above
# Procedure: as §2, §1
# [7] = biological target: T18, FAM19A5 epitope fragment F6, …; assay: as above
# Procedure: as §2, §1
# FAM19A5 mutant M4 = biological target: T19, FAM19A5 mutant M4; assay: ELISA on phage-expressed FAM19A5 mutants M1-M8
# FAM19A5 mutant M6 = biological target: T20, FAM19A5 mutant M6; assay: ELISA on phage-expressed FAM19A5 mutants M1-M8
# FAM19A5 mutant M8 = biological target: T21, FAM19A5 mutant M8; assay: ELISA on phage-expressed FAM19A5 mutants M1-M8
# FAM19A5 mutant M1 = biological target: T22, FAM19A5 mutant M1; assay: ELISA on phage-expressed FAM19A5 mutants M1-M8
# FAM19A5 mutant M7 = biological target: T23, FAM19A5 mutant M7; assay: ELISA on phage-expressed FAM19A5 mutants M1-M8
# FAM19A5 mutant M3 = biological target: T24, FAM19A5 mutant M3; assay: ELISA on phage-expressed FAM19A5 mutants M1-M8
# [8] = biological target: T25, Human FAM19A5 protein (Wild Type) (human, UniProt Q7Z5A7 44-132); assay: value given in the HDX-MS sample preparation; method of its determination not stated
# T25 construct: also called FAM19A5 antigen; TAFA5
binder,measurement,setting,value
"Anti-FAM19A5 antibody 1-28 (antibody, V domains shown) VH: AVTLDESGGGLQTPGGALSLVCKASGFDFSDYGMGWVRQAPGKGLEWVAAIRSDGSNPSYGSAVKGRATISKDNGRSTVRLQLNNLRAEDTATYYCAKDGNGYCALDAYRSGGYSCGVYPGSIDAWGHGTEVIVSS VL: ALTQPSSVSANLEGTVEITCSGSGYGYGWYQQKSPGSAPVTVIYQNDKRPSDIPSRFSGSKSGSTGTLTITGVQVEDEAVYYCGSEDSSTLAGIFGAGTTLTVL",binding result,FAM19A5 mutant M2,no binding
same,binding result,[1],binds
same,binding result,F2-06-BSA (#6),binds
same,binding result,F2-07-BSA (#7),binds
same,binding result,F2-02-BSA (#2),binds
same,binding result,F2-04-BSA (#4),binds
same,binding result,F2-01-BSA (#1),binds
same,binding result,F2-05-BSA (#5),binds
same,binding result,F2-09-BSA (#9),binds
same,binding result,F2-08-BSA (#8),binds
same,binding result,F2-12-BSA (#12),binds
same,binding result,F2-10-BSA (#10),binds
same,binding result,F2-13-BSA (#13),binds
"Anti-FAM19A5 antibody 2-13 (antibody, V domains shown, also called clone 2-13) VH: AVTLDESGGGLQTPGGALSLVCKASGFTFSSHGMFWVRQTPGKGLEYVAEITNDGSGTNYGSAVKGRATISRDNGQSTVRLQLNNLRAEDTGTYFCARSTYECPGGFSCWGDTGQIDAWGHGTEVIVSS VL: ALTQPSSVSANPGETVKITCSGGSYSYGWFQQKSPGSALVTVIYWDDERPSDIPSRFSGALSGSTNTLTITGVQADDEAVYFCGTEDISGTAGVFGAGTTLTVL",binding result,[2],no binding
same,binding result,[3],no binding
same,binding result,[4],no binding
same,binding result,[5],no binding
same,binding result,[6],no binding
same,binding result,[7],no binding
same,binding result,FAM19A5 mutant M4,no binding
same,binding result,FAM19A5 mutant M6,binds
same,binding result,FAM19A5 mutant M8,no binding
same,binding result,FAM19A5 mutant M1,binds
same,binding result,FAM19A5 mutant M2,binds
same,binding result,FAM19A5 mutant M7,binds
same,binding result,FAM19A5 mutant M3,binds
same,Kd,[8],1 nM
